The values that follow come from patent publication US20250197491A1 (MACOMICS, published 2025).

Sequences and labels used below:
B1: Antibody 5 (antibody, V domains shown)
VH: QVQLVESGGGLVKPGGSLRLSCAASGFTFSDYYMTWIRQAPGKGLEWVSYISISGITRYYADSVKGRFTISRDNAKNSLYLQMNSLRAEDTAVYYCARDQTGYFDYWGQGTLVTVSS
VL: DIVMTQSPATLSVSPGEKTTLSCRASQSFSSNLAWYQQKPGQAPRLLIYGASTRATGIPARFSGSGSGTEFTLTISSLQSEDFAVYYCQQYINWPHTFGQGTKVEIK
notes: Fully human antibody; IgG4; also called Clone 5; Antibody Clone 5
B2: Antibody 1 (antibody, V domains shown)
VH: QVQLVESGGGLVKPGGSLRLSCAASGFTFSDYYMSWIRQAPGKGLEWVSYISSSGSIKKYADSVKGRFTISRDNAKNSLYLQMNSLRGEDTAVYYCARTNWHFDYWGQGTLVTVSS
VL: EIVLTQSPGTLSLSPGERATLSCRASQSVSSSYLAWYQQKPGQAPRLLIFGASTRATGIPDRFSGSGSGTDFTLTISRLEPEDVAVYYCQQYYSTPFTFGPGTKVDIK
notes: Fully human antibody expressed in CHO; also called Clone 1; Antibody Clone 1
B3: Antibody 3 (antibody, V domains shown)
VH: QVQLVQSGAEVKKPGASVKVSCKASGYTFTSYGISWVRQAPGQGLEWMGWISAYNGNTNYAQKLQGRVTMTTDTSTSTAYMELRSLRSDDTAVYYCARSYSGSHWWFDPWGQGTLVTVSS
VL: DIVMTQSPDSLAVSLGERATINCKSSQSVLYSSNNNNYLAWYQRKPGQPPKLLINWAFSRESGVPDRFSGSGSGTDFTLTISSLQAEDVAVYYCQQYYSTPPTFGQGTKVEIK
notes: Fully human antibody; IgG4; also called Clone 3; Antibody Clone 3
B4: Antibody 4 (antibody, V domains shown)
VH: B3 VH with H104Y
VL: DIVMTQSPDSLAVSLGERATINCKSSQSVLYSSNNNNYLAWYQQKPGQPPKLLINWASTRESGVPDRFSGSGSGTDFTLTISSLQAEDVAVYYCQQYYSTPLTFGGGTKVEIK
notes: Fully human antibody; IgG4; also called Clone 4; Antibody Clone 4

Residue numbers refer to the chain shown, from its start.

One assay deals with T1, Cynomolgus monkey (Macaca fascicularis) LILRB ectodomain fused to mIgG2a (cynomolgus monkey (Macaca fascicularis)).
T1 construct: also called cynomolgus LILRB protein
T1 sequence (chain, as listed by the source limits assumed): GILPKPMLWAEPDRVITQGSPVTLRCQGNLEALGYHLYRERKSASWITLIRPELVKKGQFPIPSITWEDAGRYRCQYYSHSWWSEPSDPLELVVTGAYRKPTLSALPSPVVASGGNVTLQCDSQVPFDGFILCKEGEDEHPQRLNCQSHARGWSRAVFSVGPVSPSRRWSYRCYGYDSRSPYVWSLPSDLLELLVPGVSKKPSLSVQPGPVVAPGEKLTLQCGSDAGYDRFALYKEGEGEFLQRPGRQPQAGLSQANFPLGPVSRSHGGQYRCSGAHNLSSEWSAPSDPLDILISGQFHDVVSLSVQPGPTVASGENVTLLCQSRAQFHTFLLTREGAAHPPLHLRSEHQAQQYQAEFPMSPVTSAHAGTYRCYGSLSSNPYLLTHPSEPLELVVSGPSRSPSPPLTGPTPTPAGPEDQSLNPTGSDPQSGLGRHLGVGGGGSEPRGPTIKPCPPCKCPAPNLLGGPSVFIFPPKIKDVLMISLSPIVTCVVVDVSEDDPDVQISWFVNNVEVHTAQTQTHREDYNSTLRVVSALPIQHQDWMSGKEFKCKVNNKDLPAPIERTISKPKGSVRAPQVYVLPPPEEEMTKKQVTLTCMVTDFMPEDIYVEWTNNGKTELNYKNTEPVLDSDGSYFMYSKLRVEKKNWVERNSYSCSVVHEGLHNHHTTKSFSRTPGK
Put plainly: summary table (ELISA); Rhesus & Cyno LILRB1/2 binding; Y = Yes.
Take B1: the binding result is “binds”.

With B2, the binding result is “binds”.

As for B3, the binding result is reported as “binds”.

For B4, the binding result is “binds”.

The target in the next assay is T2, Rhesus monkey (Macaca mulatta) LILRB ectodomain fused to mIgG2a Fc (rhesus monkey (Macaca mulatta)).
T2 construct: also called rhesus LILRB-mIgG2a; rhesus LILRB protein
T2 sequence (chain, as listed by the source limits assumed): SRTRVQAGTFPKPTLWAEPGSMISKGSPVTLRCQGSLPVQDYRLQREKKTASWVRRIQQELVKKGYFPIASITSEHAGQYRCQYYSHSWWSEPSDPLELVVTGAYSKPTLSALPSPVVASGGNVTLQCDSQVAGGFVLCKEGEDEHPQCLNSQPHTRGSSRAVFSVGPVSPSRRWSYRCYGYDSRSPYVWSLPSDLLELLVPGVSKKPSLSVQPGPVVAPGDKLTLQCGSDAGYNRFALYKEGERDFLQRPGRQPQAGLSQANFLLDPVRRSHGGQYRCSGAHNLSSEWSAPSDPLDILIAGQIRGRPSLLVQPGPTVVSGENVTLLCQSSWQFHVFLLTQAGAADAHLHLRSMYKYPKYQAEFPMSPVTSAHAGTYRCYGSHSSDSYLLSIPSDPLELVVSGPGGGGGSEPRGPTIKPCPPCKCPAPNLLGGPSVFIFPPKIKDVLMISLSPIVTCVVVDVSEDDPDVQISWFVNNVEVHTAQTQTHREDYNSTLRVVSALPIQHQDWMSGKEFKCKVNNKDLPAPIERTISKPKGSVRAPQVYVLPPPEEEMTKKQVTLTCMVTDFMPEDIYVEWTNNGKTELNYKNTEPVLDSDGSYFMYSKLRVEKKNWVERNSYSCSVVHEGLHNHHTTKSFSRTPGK
The description is as above.
In the case of B1, the binding result is listed as “binds”.

In the case of B2, the binding result is on record as “binds”.

Regarding B3, the binding result is listed as “binds”.

Consider B4, for which the binding result is recorded as “binds”.

For the next assay, the target named is T3, Human LILRB1(L68P/A93T) ectodomain fused to mIgG2aFc (human).
T3 construct: The entry already carries the two substitutions
T3 sequence (chain, as listed by the source L68P A93T L68P A93T limits assumed): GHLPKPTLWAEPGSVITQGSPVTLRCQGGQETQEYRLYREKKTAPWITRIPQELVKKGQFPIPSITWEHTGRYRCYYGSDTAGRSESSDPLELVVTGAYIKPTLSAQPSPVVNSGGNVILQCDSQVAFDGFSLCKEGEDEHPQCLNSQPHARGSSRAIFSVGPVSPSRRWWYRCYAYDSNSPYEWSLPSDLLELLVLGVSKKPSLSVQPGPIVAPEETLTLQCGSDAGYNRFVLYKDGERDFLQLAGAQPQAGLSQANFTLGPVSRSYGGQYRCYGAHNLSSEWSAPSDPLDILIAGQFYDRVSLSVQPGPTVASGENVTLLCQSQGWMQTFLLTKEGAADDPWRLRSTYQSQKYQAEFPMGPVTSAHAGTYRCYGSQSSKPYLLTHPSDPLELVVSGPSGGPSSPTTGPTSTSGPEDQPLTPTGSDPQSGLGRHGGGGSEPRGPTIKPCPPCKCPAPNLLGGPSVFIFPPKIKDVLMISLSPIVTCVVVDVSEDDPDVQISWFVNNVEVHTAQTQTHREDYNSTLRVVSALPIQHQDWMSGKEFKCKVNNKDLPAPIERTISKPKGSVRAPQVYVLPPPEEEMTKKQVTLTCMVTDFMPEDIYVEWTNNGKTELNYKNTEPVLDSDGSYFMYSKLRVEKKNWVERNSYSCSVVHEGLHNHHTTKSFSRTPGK
Put plainly: ELISA, antigen coated, 10 nM antibody. From the text:
(§1) FIG. 3. Mixed LILRB1 and LILRB2 expression in TAMs from melanoma cancer patients. Analysis of LILRB1 and LILRB2 detection in macrophages in pre- and post-anti-PD-1 and/or anti-CTLA-4 therapy treated melanoma patients (n=33) is shown using Smart-seq2 data from Sade-Feldman et al. https://pubmed.ncbi.nlm.nih.gov/30633907/FIG. 4. Binding to domains of human LILRB1. Plates were coated with recombinant full length LILRB1 ectodomain (SEQ ID NO: 41) or a protein comprising domain 1 and 2 of human LILRB1 protein (SEQ ID NO: 42), and then incubated with 10 nM Clones 1-5, Reference Ab 1, and Isotype control. The bound antibodies were detected using HRP-labeled secondary antibodies and the results were plotted on the graph as absorbance measured at 450 nm.
(§2) Binding to allelic forms of LILRB1. There are 4 major allelic variants of human LILRB1 protein ectodomain. The variants of LILRB1 were expressed as recombinant proteins comprising a modified LILRB1 ectodomain and mouse IgG2 Fc region (SEQ ID NO: 50 and 51) in suspension CHO cells, and purified by using techniques that were known in the art. These recombinant proteins were then used in the direct enzyme-linked immunosorbent assay (ELISA) to determine the antibodies potential to bind different allelic forms of LILRB1. In short, Maxisorp (Nunc) or similar immune-assay plates were coated with solutions of target proteins in PBS, at 4° C., overnight. Plates were then washed with PBS, blocked with 5% milk in PBS, and washed again. Test antibodies diluted in PBS were then added to the plates and incubated at room temperature for at least 1h. Plates were subsequently washed with PBS/0.05% Tween-20 (PBST) and incubated with a solution of horse radish peroxidase (HRP) labelled secondary antibodies at room temperature for at least 1 h. After washing with PBST and PBS, bound antibodies were detected using the 3,3′,5,5;-tetramethylbenzidine (TMB) chromogenic solution. After 5 to 10 minutes, the reaction was stopped with 1% sulphuric acid and absorbance read at 450 nm.
(§3) There are four major allelic variants within the ecto-domain of LILRB1 in human population [Human Molecular Genetics, 2005, Vol. 14, 2469-2480]; namely c.203T>C (L68P), c.277G>A (A93T), c.425T>C (I142T), and c.464G>T (S155I).
A general note: ELISA stands for enzyme-linked immunosorbent assay.
As for B1, the binding result was “binds”.

Regarding B2, the binding result was “binds”.

Turning to B3, the binding result is on record as “binds”.

Consider B4, for which the binding result is recorded as “binds”.

Another assay deals with T4, Human LILRB1(I142T/S155I) ectodomain fused to mIgG2aFc (human).
T4 construct: The entry already carries the two substitutions
T4 sequence (chain, as listed by the source I142T S155I I142T S155I limits assumed): as the sequence (chain, as listed by the source L68P A93T L68P A93T limits assumed) above, with P45L, T70A, I119T, S132I counted along it
Put plainly: ELISA, antigen coated, 10 nM antibody.
Text: as §1, §2, §3
With B1, the binding result is recorded as “binds”.

For the molecule B2, the binding result is given as “binds”.

As to B3, the binding result is “binds”.

Regarding B4, the binding result was “binds”.
